The text below walks through data of article PMC6212398 (2018).

Like-named read-outs stand apart in the source and are kept apart here.

Experiment in all cases: ITC
The target in test [1] is T1, Hsp27 alpha-crystallin domain (ACD, residues Q80–S176) (human, UniProt P04792 80-176).
The target in test [2] is Hsp27 GPG (isoleucine and valine of the IPV motif mutated to glycine) (human, UniProt P04792 1-205, isoleucine of the IPV (Ile179 as printed in p-0007) to glycine).
Test [3] addresses T1, Hsp27 alpha-crystallin domain (ACD, …). The source holds these as a separate data set.

T1 sequence (P04792 80-176): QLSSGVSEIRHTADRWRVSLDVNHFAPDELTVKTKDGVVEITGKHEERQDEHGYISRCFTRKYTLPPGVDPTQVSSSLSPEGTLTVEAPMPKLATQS
Sequence of Hsp27 GPG (isoleucine and valine of the IPV motif mutated to glycine) (P04792 other isoform, or with tags, fused parts or gaps with the stated changes): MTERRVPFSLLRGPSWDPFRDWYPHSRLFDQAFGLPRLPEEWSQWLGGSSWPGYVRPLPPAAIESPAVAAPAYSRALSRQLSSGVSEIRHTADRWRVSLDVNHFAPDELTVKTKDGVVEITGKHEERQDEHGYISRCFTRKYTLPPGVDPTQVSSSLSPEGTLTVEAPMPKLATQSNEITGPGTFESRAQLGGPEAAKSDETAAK

B1: Hsp27 IPV H peptide with Ile179 mutated to alanine (peptide)
chain: EITAPVTHE
modifications: EITAPVTHE. The paper numbers the peptide from E176, so printed Ile179 (I of IPV) is UniProt I181. Peptide termini chemistry is not stated.
B1: in test [1], the Kd worked out at 12.6 µM.

B2: T184A (peptide)
chain: EITIPVAHE
modifications: synthetic 9-mer; alanine-scan variant of the His-containing IPV peptide … (gives EITIPVAHE). The T184 label fits UniProt numbering, not the shifted numbering printed in the text. Termini not stated
Take B2: binding in test [1] was characterised by a dissociation constant (Kd) of 9.43 µM. The Kd values of the last two molecules are within 1.5-fold of each other. Still for that read-out and setting: to EITIAVTHE [Hsp27 IPV H peptide with the second X residue (Pro) of IXIXV mutated to alanine (EITIAVTHE)] belongs 4.23 µM. In the case of EITIPVTHE [Hsp27 IPV H peptide (EITIPVTHE)], the Kd stood at 6.8 µM in test [2] and 7.3 µM in test [3].
